Source: IntAct's records for PubMed 26948053

B1: N-terminal EF-hand calcium-binding protein 3 (Homo sapiens), Q96P71-2 (parent)
chain: MACAGLLTVCLLRPPAPQPQPQTPRHPQLAPDPGPAGHTLFQDVFRRADKNDDGKLSFEEFQNYFADGVLSLGELQELFSGIDGHLTDNLETEKLCDYFSEHLGVYRPVLAALESLNRAVLAAMDATKLEYERASKVDQFVTRFLLRETVSQLQALQSSLEGASDTLEAQAHGWRSDAESVEAQSRLCGSRRAGRRALRSVSRSSTWSPGSSDTGRSSEAEMQWRLQVNRLQELIDQLECKAPRLEPLREEDLAKGPDLHILMAQRQVQVAEEGLQDFHRALRCYVDFTGAQSHCLHVSAQKMLDGASFTLYEFWQDEASWRRHQQSPGSKAFQRILIDHLRAPDTLTTVFFPASWWIMNNN
partner: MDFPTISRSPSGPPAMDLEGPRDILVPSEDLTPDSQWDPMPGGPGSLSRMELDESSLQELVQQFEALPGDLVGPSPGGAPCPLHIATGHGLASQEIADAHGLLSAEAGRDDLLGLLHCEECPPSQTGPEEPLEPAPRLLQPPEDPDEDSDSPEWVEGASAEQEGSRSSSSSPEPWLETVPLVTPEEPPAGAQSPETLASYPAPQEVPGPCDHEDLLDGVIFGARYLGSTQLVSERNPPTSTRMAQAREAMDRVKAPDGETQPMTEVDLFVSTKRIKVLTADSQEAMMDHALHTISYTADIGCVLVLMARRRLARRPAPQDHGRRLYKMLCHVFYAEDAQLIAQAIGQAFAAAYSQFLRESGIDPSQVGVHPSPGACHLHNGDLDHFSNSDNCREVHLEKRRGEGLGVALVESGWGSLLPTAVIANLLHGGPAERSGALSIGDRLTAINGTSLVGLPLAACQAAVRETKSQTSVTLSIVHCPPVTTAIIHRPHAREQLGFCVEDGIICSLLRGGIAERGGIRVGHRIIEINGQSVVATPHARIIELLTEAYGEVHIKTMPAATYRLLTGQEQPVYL

Variants of: B1
Settings: with apba3_human APBA3, O96018

Variant | effect of a mutation on the interaction
H324A | with no effect
